From publication PMC11260492 come the findings set out here.

The series concerns the target RPA (native, unlabeled heterotrimer) (human, UniProt P27694;P15927;P35244 1-616;1-270;1-121). Description: FRET equilibrium titration.

RPA (native, unlabeled heterotrimer), sequence (P27694 whole entry, chain 1 of 3): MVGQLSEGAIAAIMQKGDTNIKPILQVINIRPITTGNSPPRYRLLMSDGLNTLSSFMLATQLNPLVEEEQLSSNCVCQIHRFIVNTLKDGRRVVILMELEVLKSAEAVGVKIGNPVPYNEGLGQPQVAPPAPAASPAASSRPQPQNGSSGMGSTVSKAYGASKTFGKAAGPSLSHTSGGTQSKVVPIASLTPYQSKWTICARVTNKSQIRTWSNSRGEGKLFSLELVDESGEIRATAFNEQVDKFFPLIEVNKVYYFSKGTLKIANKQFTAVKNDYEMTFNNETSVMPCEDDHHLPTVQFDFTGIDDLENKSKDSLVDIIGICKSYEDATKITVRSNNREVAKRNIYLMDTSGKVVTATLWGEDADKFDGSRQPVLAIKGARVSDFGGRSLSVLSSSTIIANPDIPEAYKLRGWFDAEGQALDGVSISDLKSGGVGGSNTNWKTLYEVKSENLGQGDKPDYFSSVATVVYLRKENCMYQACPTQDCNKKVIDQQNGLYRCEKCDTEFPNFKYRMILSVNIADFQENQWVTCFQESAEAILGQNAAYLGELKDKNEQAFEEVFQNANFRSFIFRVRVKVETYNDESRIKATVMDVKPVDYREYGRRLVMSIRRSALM
RPA (native, unlabeled heterotrimer), sequence (P15927 whole entry, chain 2 of 3): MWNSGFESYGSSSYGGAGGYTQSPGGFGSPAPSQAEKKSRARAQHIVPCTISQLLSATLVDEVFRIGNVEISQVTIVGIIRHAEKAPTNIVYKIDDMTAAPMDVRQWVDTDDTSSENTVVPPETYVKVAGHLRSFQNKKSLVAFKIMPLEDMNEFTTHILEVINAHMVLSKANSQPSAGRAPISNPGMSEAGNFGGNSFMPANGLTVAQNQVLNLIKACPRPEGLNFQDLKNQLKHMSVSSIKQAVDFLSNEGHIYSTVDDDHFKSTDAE
RPA (native, unlabeled heterotrimer), sequence (P35244 whole entry, chain 3 of 3): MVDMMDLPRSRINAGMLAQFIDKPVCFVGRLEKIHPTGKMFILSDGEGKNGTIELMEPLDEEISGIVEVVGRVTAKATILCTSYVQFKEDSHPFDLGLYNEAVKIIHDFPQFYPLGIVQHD

For TTTTTTTTTTTTTTTTTTTTTTTTTTTTTT (ssDNA) [poly(dT)30-FRET], the binding result is “binds”.
